According to the supplement of paper PMC9170038:

System: K4 kissing-loop RNA reporter
Assay: apparent KD of K4 kissing-loop reporter; higher = weaker reporter binding
Conditions: Eterna round: R107
Experimental: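 RNA-MaP round R107: designed RNA switches with theophylline, tryptophan, arginine or FMN aptamers are transcribed on-chip within common flanks. They are titrated with a labelled K4 kissing-loop RNA reporter in RNA-MaP buffer (100 mM Tris pH 7.5, 80 mM KCl, 4 mM MgCl2), without ligand or with the indicated ligand. Median apparent KD per design.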

[1] = input ligand: theophylline 20 uM
[2] = input ligand: tryptophan 2.4 mM
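Also: bound reporter read as fluorescence of individual clusters on recovered sequencing chips by microscopy, with normalized cluster intensities fitted with a binding model.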

| Sequence | apparent KD of K4 kissing-loop reporter (input ligand: FMN 200 uM) [nM] | apparent KD of K4 kissing-loop reporter (input ligand: arginine 13.2 mM) [nM] | apparent KD of K4 kissing-loop reporter (input ligand: none) [nM] | apparent KD of K4 kissing-loop reporter [1] [nM] | apparent KD of K4 kissing-loop reporter [2] [nM] |
| --- | --- | --- | --- | --- | --- |
| AAGCAGUCACUCGAAGCCAUCGAAGAUGGCCGAGGACCGGUACGGCCGCCACUCGGAGUGAUGUUCCGAAGACUGCAAAAUAAAA | 313 | 303 | 355 | 363 | 306 |
| UGAUAGGACAGAAGGAGCGGGCUAGUCAAAGACUAGCAAACGUUAAUAACAGGAGUGAUGUUCCAGGUAGGUCGCUGUCCUAUCU [ArgBX 25 #SwitchBubble #StaticStem] | 136 | 120 | 143 | 138 | 120 |
| UUUAUAUAGUCGGCCGCCACUGAUUUUUAUAUAUGUUUAUGUUUAUACGAGUGAUGUUCGUUAUUCAGGACCGGGACUUUUGUUA [JR_SSTryptoB_Sub016] | 108 | 133 | 109 | 117 | 102 |
| GCAGGACGAGGAGGAGGAUGAAUUACUGAAGGAGCGCAUAUUUUUGCAGGUAGGUCGCGGUAAACAAGUAUAGUGAUGUUAUAUA [SSArgA.M] | 415 | 464 | 446 | 514 | 264 |
| UGUACCGAGUCAGGAUAUGGCGUCGAAAGACGAAACCAGUGAUGUUGGAAUAUCGACGAAAGUCGUCCAGAAGGGACUUGGUACU [FmnBS 17 #SwitchBubble #StaticStem #DoubleMagnetSystem] | 153 | 264 | 256 | 264 | 273 |
| CGCAGUGAUGUUGCGAGUUUAUUCAGGGAAGGAGCGCCACAGAUGGCAGGUAGGUCGCCCACGCAGUGAUGUUGUGUAUUCGGGU [Exclusion Arginine A GF 3] | 141 | 128 | 127 | 128 | 116 |
| ACGACGCAUAGUGAUACCAGCUAUAUAUGAGUGAUGUUCUACCUAAAAUGGUAAUAAUUUAGCCCUUGGCAGCACUAUGCGUCAG [KL-SSTheoB4] | 380 | 456 | 377 | 562 | 262 |
| UUUUAGGUAUCUGAUACCAGAGAAAAUAUAUGUAGUGAUGUUAUAUACAAAAUAAUUAAGCUCCCUUGGCAGCAGUAUUAAUUUU [AstrosExc-TheB#3] | 825 | 742 | 854 | 917 | 717 |
| AGAUAGGGCUGAAGGAGCGUCGGAAAAGAAAAGAUGAAAUCCAGUGAUGUUGGAUAAAUCCGACAGGUAGGUCGCAGUUUUAUGA [#01 K4 Arginine B Same State] | 126 | 129 | 133 | 161 | 120 |
| GCGCGUCAUGUCAGCGGUGACUACGUCGAUACCAGCAGGGAAACCUGCCCUUGGCAGCGACGCGCUGGAGUGAUGUUCCGACGGA [#2 Exclusion - Theophylline A Attempt #6 (HarryS)] | 434 | 431 | 544 | 854 | 442 |
| UCCUGCAAUCGGCCACGAAAGUGGAUUGAUACCAGAGUCGAAAGACUCCCUUGGCAGCGAGUGAUGUUCGAAGCAGGUAAAUAAA | 464 | 380 | 502 | 514 | 432 |
| GGAGUUACCUGGGAUACCAGUCGGAGUCUCAGAGCACGGAGUGAUGUUCUGGGAUGUUUCGGCCCUUGGCAGCUCUGGGACUCCA [#2 Exclusion - Theophylline B Attempt #15 (HarryS)] | 317 | 209 | 268 | 219 | 228 |
| UGGCCUUAAAUUCUAGGAUUAGCGACGUACAAGGAUAUUCGUCAUCGAAGAAGGUGUAGCUAGGAGAGUGAUGUUUUCCAUCGCC [theeternabot_sameState_KL_FMN_A_15] | 640 | 449 | 549 | 576 | 504 |
| UGGGAUUUGUCAGGAUAUGAGUGCAGUGAUGUUGCACUUAAUAAAGUACAUAGGCCCUGCUGGCACUCAGAAGGGACGGUGAUGC [Lalasobeer] | 122 | 73.6 | 103 | 86.7 | 92.4 |
| CCCUUAGACUCGGCCGCCACUCGUACCGAGAGCAUGCCACCCAUUAGUGAUGUUAAUUUGUCCUUGAGGACCGGGAGCCUAGGAA [theeternabot_exclusion_KL_Trp_B_44] | 941 | 789 | 980 | 986 | 822 |
| CGUUUAUAGCAGGAUACCAGUACCCAUAAAGUACGUUAAUAGUAGAGUGAUGUUCUAAAGUACCCUUGGCAGCUUCCCGUGACCC [ExTheophylB.W] | 103 | 160 | 133 | 182 | 79.6 |
| GCGCGGGAGUGAUGUUCCAAGUGGUGUUAGCGAGGACCGGUACGGCCGCCACUCGUUACGGCCGGGCCGUAGGAUACACUGGCGC [Same State - Tryptophan A (Freestyle 17)] | 308 | 218 | 286 | 290 | 240 |
| GUCCAACCUGGAGGAUAUCUGCUGUCCAGUGAUGUUGGACACUUUAGUAAAGGCCGGGUAGCCCGCAGAGAAGGCCGGAGUUGCC [Arceer] | 310 | 328 | 375 | 464 | 327 |
| CAUGGGCCAGUGAUGUUGGCGCGCACGGGACGAGGACCGGUACGGCCGCCACUCGCUUUUGCUCUUAUCGGGAUAAGAAAACCGA [Enveerorle] | 453 | 134 | 567 | 309 | 635 |
| UGUAUAGUCAGAAGGAGCGUGAACGAUCGAGAAUCGAUCAGCCAGUGAUGUUGGCAGGAAUCACAGGUAGGUCGCUGACUGUACA [Arg B SS t3] | 237 | 208 | 258 | 240 | 208 |
| UAUUGUACAGGGAAAUUGAUAAUAGACUUACGAGGACCGGUACGGCCGCCACUCGAUAGUCGAGUGAUGUUCGAAUGCUAUUGAU [Attempt 1] | 218 | 210 | 211 | 314 | 132 |
| UUAGAAGUAUACUUCAAGAGCUAUACUGAUACCAGAGUCAAUUGACUCCCUUGGCAGCGGAUCGAGUGAUGUUCGUAAGCUCAUU [AK4 SS Theophylline A] | 464 | 456 | 583 | 521 | 502 |

| Sequence | apparent KD of K4 kissing-loop reporter (input ligand: FMN 200 uM) [nM] | apparent KD of K4 kissing-loop reporter (input ligand: arginine 13.2 mM) [nM] | apparent KD of K4 kissing-loop reporter (input ligand: none) [nM] | apparent KD of K4 kissing-loop reporter [1] [nM] | apparent KD of K4 kissing-loop reporter [2] [nM] |
| --- | --- | --- | --- | --- | --- |
| GCGAUCUGCAUCGAUACCAGCCCAGUGAUGUUGGGCUGCUCUCCAUGGGUGCCAGACACGGGCCCUUGGCAGCGAGGUAGAGCCC [Maonzaa] | 129 | 118 | 109 | 112 | 115 |
| ACUGGGUUGACGAAAGUCAACAAAUGAGAAGGAGCGCACGAAAGUGCAGGUAGGUCGCUCAUUCCAGUGAUGUUGGAUCACCAGA [#SwitchBubble 19 #K4Late] | 531 | 456 | 836 | 831 | 464 |
| UUUAUAAUGUCGGCCGCCACUGGAUUAAUAUUUGUAUAAUCUAGUUCUGAGUGAUGUUUAGAGUCCAGGACCGGGACAUUUGUUA [#10 K4 Tryptophan B Exclusion] | 701 | 515 | 651 | 788 | 520 |
| GGAGAGCGGAACGAUACCAGCUGCGGCACGCACCGGAAGUUAAGCCAGUGAUGUUGGCGGAGCCCUUGGCAGCGUGCGCGCGUCC [Abeusma] | 122 | 93.3 | 104 | 145 | 105 |
| GCCGUAGAUGGAAGGAGCGAGGUAGACUGUUGAAGUGAUGUUUCAACUCAUUAAGCCCAACCUCAGGUAGGUCGCCAUCUACGGC | 133 | 110 | 115 | 118 | 115 |
| AUUAAUUUCAGAGGAUAUCGUAUUUAUAUUUUAUCUUUCCAUAUUUGCAGUGAUGUUGCAUUAAUUCGAGAAGGCUGAUUUAUAA [JR_ExcFMNB_Sub008] | 79 | 84 | 61.5 | 75.1 | 55.5 |
| CUGGGUUGACGAAAAGUCAACAAAUGAGAAGGAGCGCACGAAAGUGCAGGUAGGUCGCUCAAUCCAGUGAUGUUGGGUCAUCCAG [#SwitchBubble 13 #K4Late] | 856 | 612 | 993 | 951 | 731 |
| AUUUAGACGAGUGAUGUUCGUGUUAUUACAGAGGAUAUGCGUAAUUGCAGAAGGCUGUAUUUAUAUAUGUUAUGUGGUUUUAAAA [whbob_Ex_FMNA__2th185] | 75.1 | 98 | 77.6 | 93.8 | 63 |
| AGGGCUGAGAGCGAUACCAGCGGAUACUAUAUGGUCCAAUAGAGUGAUGUUUUAUAAAGCCGCCCUUGGCAGCGCAAUCUAUUAG [XTheo-B4] | 1330 | 423 | 501 | 982 | 453 |
| CUCGUGGGUUUGAGAGGGCUUGUGGGAAGUGAGGAUAUUUAGGGAGAAAGAAGGCACUAUAGAAUAUAGUGAUGUUAUGUAAGGG [SSFMNA.O] | 466 | 954 | 492 | 180 | 348 |
| GCCGUACGCAUGGAUACCAGCAAUUAUGCUCGUGAUCUAGUGAUGUUAGUGGCGAAAGUUUGCCCUUGGCAGCCAUGCGUACGGC | 224 | 172 | 244 | 134 | 182 |
| UUGUGCAGCAAUCGAGUGAUGUUCGACGAUACCAGCCUCGAUAGAGGCCCUUGGCAGCGUAUCAUCACAUGCCAAGAGCUGCACU [#SwitchBubble 5] | 530 | 362 | 428 | 368 | 419 |
| AGACGCCAGUCGGCCGCCACUCACAGCAGUGAUGUUGCUGAGAAUCUAGAAGAGUGAUGUUCUUAGAGGACCGGGACUCCAGUCG [Same State Tryptophan B GF 7] | 354 | 363 | 383 | 311 | 306 |
| CUCGAGUGAUGUUCGAUUAUUUAUACAGAUACCAGUGAAUUUUAACACCCUUGGCAGCUGGUUGUAUCUUUGUAAUUUACACAAG [JR_ExcTheophyA_Sub005] | 120 | 168 | 113 | 151 | 93.6 |
| GCCGUAGAUUGAAGGAGCGAGGCUACUUAAAGACCGAGUGAUGUUCGGGAACGUGAAACUCCUCAGGUAGGUCGCAAUCUACGGC | 284 | 235 | 280 | 227 | 267 |
| GUGCAGUGAUGUUGCACGAGGAAAGACGAUACCAGCCGUAAAUAAGGCCCUUGGCAGCGUGGACUAGCAUAAAGUAUGCUAGCCU [Isenaonle] | 118 | 104 | 123 | 116 | 96.5 |
| GAUUGUGAUGGAAACAUCGCAAUCUCUGAAGGAGCGCGUGAAAACGCAGGUAGGUCGCAGGACGACUAUGACAGUGAUGUUGUCG [Ex Arginine A K4 3] | 189 | 216 | 190 | 207 | 189 |
| ACCAUCAAAGAUGGCCAGGACUCCGCUGAUACCAGAGUGAAAACACUCCCUUGGCAGCAGGUGAGUGAUGUUCACGAGUCCUGGA [Omel KL Theo A SS B v6] | 986 | 330 | 476 | 448 | 836 |
| UGUACCGAUUCAGGAUAUGUCGUCGAAAGACGAAAUGGAGUGAUGUUCCUUAAACUGCGAAAGCAGACAGAAGGGAAUUGGUACU [FmnBS 29 U9+A77] | 146 | 285 | 300 | 318 | 284 |
| GCAACUCUCAGUGAUGUUGAGUUAUCGGAAGGAGCGCGUGAAAACGCAGGUAGGUCGCCGAUACAAUGAGUUUCUCGUUGGUUGC [Arginine A K4 21] | 769 | 489 | 664 | 554 | 569 |
| UGAUACCAGACGGCCGCCACUUCUGCAAGUCAAAGACUUGCCAAGGGAAUCGUCCAGUGAUGUUGGAGGACCGGGUCUGGUAUCU [FiskerMod 3 - Jieux - Exclusion - Tryptophan B] | 880 | 445 | 817 | 585 | 668 |
